Values quoted from earlier work as cited in paper PMC6586500.

Target: Histone H3K9me3 peptide (Homo sapiens) (UniProt P68431)

Sequence of CBX5 (P45973 whole entry): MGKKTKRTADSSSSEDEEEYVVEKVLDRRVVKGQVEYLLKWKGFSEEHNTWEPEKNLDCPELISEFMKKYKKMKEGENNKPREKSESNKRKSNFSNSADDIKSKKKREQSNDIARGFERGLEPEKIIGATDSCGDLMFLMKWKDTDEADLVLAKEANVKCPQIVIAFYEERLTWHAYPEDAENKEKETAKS

Kd: 30 µM
Substance: CBX5 (from UniProt P45973)
